# Measured values published in a protein production outcome set (Wang et al. 2014).
# Experiment: label from the status in PepcDB records
# 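Note: failed if final PepcDB status was selected cloned or expressed and not failed if soluble or beyond.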
row,Sequence,protein production
1,MIDTLKNIKVKDVMTKNVITAKRHEGVVEAFEKMLKYKISSLPVIDDENKVIGIVTTTDIGYNLIRDKYTLETTIGDVMTKDVITIHEDASILEAIKKMDISGKKEEIINQLPVVDKNNKLVGIISDGDIIRTISKII,not failed
2,MIEEAPPHPSAPMAASPSVTTALKHAPLGIAIFDNQMRYLAASRQYLTDQHLPPDLPLIGRLHYDAFPEVPQKWRDLHARVLAEGVELRHEGDPYVDREGRTQWIRWSMAPWRTDGGGIGGLVLYTEVVT,failed
3,MIEFLLNYYFMPFNLSVIALLILSMAETIGIYIGLRPSTFLKKFLPRWLSNSPLVNVKFSKVLILVFFLINFSFAGYFLQLCVFAQQQFFISPFYLIIPALIIGIFFTVFMIHCLDQVIKPQVEHQYSSLLGRLATISSGSARPGFSAQARVRDEFGQLHYVQVEPEFGELELQSQVILIRFRQTHYIAKRISASNHLFTPE,failed
4,MIEIKTLTNNDFNEYKRLVSTVNEEFTQDSHYSQTMTDTLIHDILNQGSPKCIVFGCYENETLIATAALEQIRYVGKEHKSLIKYNFVTNNDKSINSELINFIINYARQNNYESLLTSIVSNNIGAKVFYSALGFDILGFEKNAIKIGNTYFDEHWLFYDLINK,failed
5,MIEKIVKEMTLKEKVGQLNQHLYGWQCYQKVNGKYELTDLFKEHVKEYGGVGAIYGILRADAWSQINRENGISREDSKIVITMIQEYIKKHSRFEIPALISEECVHGHMALGAPVFPTNLAMGMTWNPDLMERITHNVSQELAAKGGNLALFTGFDVLRDPRWGRSEECFSEDAYLTSCMTSAAVHGFQKEKNGVAVVVKHLCAQGGCVGGHNSDAALIGPRELREIHLPPVKAAIDAGAKAVMAAYNEIDGIPCHINKALLFETLRKEYDFSGIVMADGCALDRLLLLDDDILKVGSLALKAGVDLSLWDNVYLRLDEAIKQGYLTEEELDQAVLRVLRLKEELGLWEELNTYSLPEASDLLLQAARECQVLLKNNDSLLPLSSKQKIAVIGPNANHYLNQLGDYTAYQNKSDIVTVYDGICQKTEISPIYVQGCSIRGRKFDIEPALVAAKAADIVILVLGGNSTRLYQDTFENNGAVKANQENQMNCGENIDLASLELEGYQNELLLALKEVNPHIVTVLIQGRPHVINTVLKHSQAVLASFYPGSRGGEGIADVLFGDYNPSGHLSVSIPQHVGQLPCYYNHKHNGAQKDYVDMPGEALLPFGYGLSYSQFIYRDIKVPKAIKITDLLENGIDLQLEIYNNSTYDGEDVIQVYLKDHQASVVSRVIELKAFNKVKIQAYQSKQISIHLTSDAFAIWNYEMKYLVEPGDVSICIGVDSKHYQEFKLTLVK,failed
6,MIELIIGAVLLSLLIYGIFIEPHLMKVRHVKIAQKQNLKIAHFTDTHFAWHTTSRRFKKFARNIANEQPDLIIFSGDLFDKVAWAKNRDWTDLLTILSELKAPLGKFAILGNHDFDDEKSSRFVEEFLEKAGFVLLKNSSVVKDNLSISGVDDWREGRPDFELEPIDATFSLLALHEPDTILDMETIKEFDLILSGHSHGGQIRIGNWRLRNKGSSSADAGLYQLNDRTKLYVNRGIGLTFLPIRFGVPPEIVYYYI,failed
7,MIENSSPYTSEHFHYTVTDIKDLTKLGAIYDKTKKYWVYQGKPVMPDQFTFELLDFLHQLTHLSFSKMKALLERSHSPYYMLNRDRTLKNITETCKACAQVNASKSLEHHHHHH,not failed
8,MIEQELTYQDLRIPSSEIYEAMGYKDSIPDQMVIDETNTLLKRVIPLLRPRFAFFFMEGTLDIEKETLSVQSIHPPTVNPIQDTIPTRSPEQNTFSTQSKSTVFSVGKTIARQLRGSEAFVFFAATAGTEFEVFQHTLQQEEDMVKIYIADSLGSIIAEKTADCMEVALAEYIREKNWKHTNRYSPGYCGWHVSEQQKLFPLFPIAAPCGIRLTDSSLMVPIKSVSGVIGTGTNVRKLEYTCGLCTYENCYRKRKHRLEHHHHHH,failed
9,MIERLELRNLTVFTGLTLELSPKINVIIGENGTGKTHLLKAAYGLCAGAPLFKNKPDTGDDELEAALTAKLLRLFMPLDDKLGKMHRQGATDQAYLSAKFAGGQKIAATFFNNSKALAVQDRANYEKYQAEAVFIPTKEVLSFMKGFNSLYEKYGLSFDQTYQDICLLLDLPEVRPETLHEKSKWAMAEIEGICGGRFVFYGGGKVTFKTENAEYSANSMAEGFRKAGILSRLLETGAIQPGVSGPLFWDEPESNLNPKLMKLLVQILLELSRNGQQIILATHDYVLLKWFDLLMDKGKDDHVRFHSLYRDADTSEIKVASTEDYLKITPNPIDEAFGFLINQEIENDMGGLGK,failed
10,MIEYRIFRFPMYPLLARFFSSHQQALGVLFALLSAIGFSAKAIFIKLAYVEPVDAVTLLALRMVFSVPFFVFAMLHGRAQATPMARHDWLAVLLLGLVGYYLASFLDFLGLQYISAGLERMILFLYPTMVVLISALVFRAAIGRRVWFALLLSYVGIGLVFVHDFHITSDGLFMGSSLVFASALAYAIYLIGAGHTIARIGSMRFTAYAMTVACLACIAQFLLTHPLDDLQQSTRVYGLSIGMALFSTVMPAFALAAAMRRIGSMQTSMIGALGPVATIYLAYVFLAEQLSLTQLAGSGLVLIGVMMISMRKME,failed
11,MIFMGNKVKYNLKNVHAAKLTETDSDGTTTFSYAEPKAIPGAVSISLDAEGETSPFYADGIVYFRSVTNNGYSGDLEIALIPEWFRTEILQEKLDAKGVLVENSGVGESVKFALLFEFDGDVNAIRHVLYNCSASRPSIESETKEDTIEPGTETLSITADPRSDGLVKARTGDTTDSGTYTNWYKAVYTPTEEEPEETSGEDESV,failed
12,MIFYKSKRLAFFLTSDIVLILLSVYLAFSLRFSGDIPSIFYHGMMVSAIILLVLKLSFLFVFRIYKVAWRFFSLNEARKIFIALLLAEFCFFLIFYFFSDFFNPFPRSAIVIDFVLSYMFIGTLRISKRMLVDFKPSRMKEEETPCIVVGATSKALHLLKGAKEGSLGLFPVGVVDARKELIGTYCDKFIVEEKEKIKSYVEQGVKTAIIALRLEQEELKKLFEELVAYGICDVKIFSFTRNEARDISIEDLLARKPKDLDDSAVAAFLKDKVVLVSGAGGTIGSELCKQCIKFGAKHLIMVDHSEYNLYKINDDLNLYKEKITPILLSILDKQSLDEVLKTYKPELILHAAAYKHVPLCEQNPHSAVINNILGTKILCDSAKENKVAKFVMISTDKAVRPTNIMGCTKRVCELYTLSMSDENFEVACVRFGNVLGSSGSVIPKFKAQIANNEPLTLTHPDIVRYFMLVAEAVQLVLQAGAIAKGGELFVLDMGKPVKIIDLAKKMLLLSNRNDLEIKITGLRKGEKLYEELLIDENDAKTQYESIFVAKNEKVDLDWLNKEIENLQICEDISEALLKIVPEFKHNKEGV,failed
13,MIGALRHACPGSRAAAFVLSGLQTMTNEVKSAVRVIQILEYFDTVRREAGVLEISRALGFPASSTAGILRSLQRLSYLVQDEQRLYRPTPRVTLLGSWIDPLLAHDGPLMALMSHLSKATGETIILALQVDAGARYIHIIPSTQRVRLHVNVGDVRPLLTSGTGRLFVSTMEPDQVRRAVFRHNALRGANEPEINLSTVTRDATQIRKNGYATSLDRLVPGVGIIAALLPEREGTRPMAVAVGGPSVTIRARTAELASLLREGIGQYLPHLGNAGDQS,failed
14,MIGELVKDKILIKNIEDARLIYKMGYYGKPIGISKPKSAEEINSELILSLIEGVYLVKKGKLEIVSNGERLDFERLYQIGVTQIPRFRILYSVYEDLREKGYVVRSGIKYGADFAVYTIGPGIEHAPYLVIALDENSQISSNEILGFGRVSHSTRKELILGIVNLTNGKIRYIMFKWLKM,not failed
15,MIGHRISRLGSTIVKQLAREGYLATYGTKNLHRSYGHYLQSLPVVPRQARTSQEAWFLKSHKFCTSSTTSSENGDEETEKITIIFVDKDGEEIPVKVPIGMSVLEAAHENDIDLEGACEASLACSTCHVIVMDTEYYNKLEEPTDEENDMLDLAFGLTETSRLGCQVIARPELDGVRLAIPSATRNFAVDGFVPKPH,failed
16,MIGLSFVSLLTIVCAALGCAVLTWALMPLLIRYALARPNARSSHKVPTPQGAGIAVVAATLAVTALAVGPTTPAFLGLIPLFVAAIVIGIVGAVDDIRPIPVLPRFALQALCVGAVVLTLPSDQQIIPALPLWLERAALLIGGLWFINLVNFMDGLDWMTVAEGLPVTAALLVFGLLGALTQSPMLLAAALGGALLGFAPFNRPGAARVFLGDVGSLPIGLLLGWCLLQLALQGHVAATLLLPLYYLADSTLTLLRRMMRREPFWLAHRSHFYQRATDNGFSVREVVGLVCLTNLALAALAGVSIALNSVAADGLLLAVGAAIVAALLMRFADRKA,failed
17,MIGQAILLGCIAFIAQSEYALGTSLLSRPIVTGLFVGIVLGDVKTGVIMGATLELAFIGSFSVGASIPPDVVTGGILGTAFAITAGAGTETALVLGLPIATLTLILKNIYLGLLIPIMSQKADQYAEEGAYKGVERMHLLAGFGLSFMLALIVTISFAVGSNTIKGLLDLIPEFIQHGLSVATGIIPALGFAMLARLLINKQVAPYFFLGFVLMAYFKLPVTGVAILGAITAVIVVNIMNYAKGKNETIQTTSGEVIDDDEDF,failed
18,MIGVITSLTGGAILRNPAVLLIPLIYLVGRRSRDLTYLLFVMYTIITFQFVEVKELISYETIKTTLMAIIPSLLALKESIEGKKLQKTDLYYLPLFFLGVLRDYFYYLGLIIAGLLHIENFHSILIPAAVFSLIISPALVGELIELPGEYISIIMAGSLLVIYLVFQPTRR,failed
19,MIHADPESAMPAAYAATPFAQRLGLTLPVVQAPMAGVSTPALAAAVSNAGGLGSLGLGAMNADAARQAIALTREQTTRPFNVNLFCHAPATADAAREARWLQYLAPRFAEFDAQPPATLREVYTSFLADDDMFDMLLAERPEVVSLHFGLPPASRIAALRQAGIYLMATATDMREAARIAAAGVDAIVAQGIEAGGHRGMFDPAARDEQLGTLALTRLLARRFDAPVIAAGGIMDGAGVAAVLALGAQAAQLGTAFISCPESSADMPHRHALLDQAEVATTLTRAISGRPARSIANRYTELGAAADCPPTPDYPIAYDAGKALHAAARARGDASYAAQWAGQAAALSRGVPAATLMRQLQAELNDCIGRLAR,failed
20,MIHDDQKPSSSLDLQEIRIQIDSVDQQIQELINRRATLAEAVAKAKFASEENPLFYRPEREAQVLRKVMERNQGPLSDVTMARLFREIMSACLALEAPQSIAFLGPEGTFTQSAALKHFGKDAVVRPLPTIDEVFREVEAGSAHYGVVPVENSSEGVVNHTLDCFRTSQLNVIGEVELRIHHQFLVSHNTRKDSIKQIYAHQQALAQCRQWLDTHYPGVERVALSSNAEAARRIRNEWHSAAIASDIAASMYDLEIFHSNIEDNPENTTRFLVIGREKIPQSGNDKTSLLISAHDRAGALLEILAPFAKHKISLTSIETRPALPEKWAYVFFIDLEGHIEQENVAAAIDDIRPLVKELRILGSYPAAVL,failed
21,MIIEYLQLVGLGLVTMLPVANPLTSTTLLLALGSGFTRDERNRQIGRATVYVAAIILASFYAGNAIISSFGISIPGLRIAGGLIVAYIGFTMLFPATSQNEAQAQVEMAPDDPHIQVPGAAHTGPRPRDISFVPLALPGTAGPGTIALIISSASTLHSHGGITLIHHFAVITVTLLLALLFWACLRSAERVMRMLGQSGIDAISRVMGFLLICMGVQFIIDGVFELIRHPPGA,failed
22,MIIIELNKRQEHIIQIVKDHGPITGESIAAQLGLTRATLRPDLAILTMAGYLEARPRVGYFYTGKTGGQLLSEAVKKIKVQDYQSRPVVIDKNVSVYDAICTMFLEDVGTLFVVDQSTLLVGVVSRKDLLRASLGKQDLTSLPVNIIMTRMPNIAMCRREDSLYDIAMELIERQIDAMPVVKDTKQGLEVVGRITKTNITRAFVNLVNNE,failed
23,MIILDNLEQFKVVYRDGRKWNRCVEAIENIGNLRDGIMYSIGDSLVYMIEDGIAKNTETFVGNRRYFDIHYYLEGRETVEVASKSELESVQAYSDETDREHLNGNGQKHQLCEGQVAVFDNTKAYKFHGDNRVRKVVLKVTIEDGYFLNK,failed
